Positions count from the first letter of the chain named.
T1: Activin B (Homo sapiens (Human), UniProt P09529 293-407)
T1 construct: also called Mature Activin B; mature Activin B
T1 sequence: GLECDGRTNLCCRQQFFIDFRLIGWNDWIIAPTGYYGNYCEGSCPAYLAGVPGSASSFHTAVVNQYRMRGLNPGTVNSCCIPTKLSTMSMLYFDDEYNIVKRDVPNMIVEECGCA

T2: Inhibin A (Homo sapiens (Human), UniProt P05111 233-366; P08476 311-426)
T2 sequence 1: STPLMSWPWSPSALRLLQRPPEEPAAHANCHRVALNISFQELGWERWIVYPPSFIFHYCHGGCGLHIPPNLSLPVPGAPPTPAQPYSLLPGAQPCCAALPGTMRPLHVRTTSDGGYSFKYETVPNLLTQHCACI
T2 sequence 2: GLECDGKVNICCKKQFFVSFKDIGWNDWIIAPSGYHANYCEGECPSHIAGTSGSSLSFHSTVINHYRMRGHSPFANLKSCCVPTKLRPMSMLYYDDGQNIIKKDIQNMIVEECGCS

T3: Mature Activin A (human, UniProt P08476 311-426)
T3 construct: also called active Activin A; INHBA mature
T3 sequence: T2 sequence 2

T4: Latent Activin A (human, UniProt P08476 21-426, limits assumed)
T4 construct: also called INHBA latent
T4 sequence: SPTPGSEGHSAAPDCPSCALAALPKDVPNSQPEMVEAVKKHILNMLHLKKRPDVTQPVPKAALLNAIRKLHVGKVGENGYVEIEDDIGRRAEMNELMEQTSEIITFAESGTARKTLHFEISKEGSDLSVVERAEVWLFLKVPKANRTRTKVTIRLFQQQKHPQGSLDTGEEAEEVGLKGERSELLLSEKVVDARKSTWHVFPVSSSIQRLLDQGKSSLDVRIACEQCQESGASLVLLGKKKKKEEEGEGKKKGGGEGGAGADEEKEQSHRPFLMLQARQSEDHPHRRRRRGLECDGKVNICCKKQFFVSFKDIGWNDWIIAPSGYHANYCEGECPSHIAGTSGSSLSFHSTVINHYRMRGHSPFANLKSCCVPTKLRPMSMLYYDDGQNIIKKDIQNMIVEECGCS

B1: AB340 (antibody, IgG1, V domains shown)
VH: EVQLVESGGGLVQPGGSLRLSCAASGFTASRNYMSWVRQAPGKGLELVASISGSGDYTYYPDSVKGRFTISRDNAKNSLYLQMNSLRAEDTAVYYCARSPRGPRLLGYYYGMDVWGQGTTVTVSS
VL: DIVMTQSPLSLPVTPGEPASISCRSSRSLVHGSGHNYLHWYLQKPGQSPQLLIYGASTRVAGVPDRFSGSGSGTDFTLKISRVEAEDVGVYYCMQGTQAPRTFGGGTKVEIK
B2: AB326 (antibody, IgG1, V domains shown)
VH: QVQLVQSGAEVKKPGASVKVSCKVSGYTFTSSAISWVRQAPGKGLEWMGGIYPGSGHTIYAQKFQGRVTMTEDTSTDTAYMELSSLKSEDTAVYYCAREGDIFVMDVWGLGTAVTVSS
VL: DIQMTQSPSSVSASVGDRVTITCRASMDIRNDLAWYQQKPGKAPKLLIYDASKLETGVPSRFSGSGSGTDFTLTISSLQPEDFANYYCQQAKSFPPTFGGGTKVEIK
B3: AB843 (antibody, IgG1, V domains shown)
VH: EVQLVQSGAEVKKPGASVKVSCKASGDTSSHSHIHWVRQAPGQGLEWMGWINPRSGATNYAQKLQGRGTMTTDPSTSTAYMELRSLRSDDTAVYYCARDRGGRTNGVGAFDIWGQGTMVTVSS
VL: ESALTQPASVSGSPGQSITISCTGTSGDIGRYNYVSWYQQHPGKAPKLMIYEDIERPSGVSNRFSGSKSGNTASLTISGLQAEDEADYYCQVWDATLDLVFGGGTKLTVL
B4: AB342 (antibody, IgG1, V domains shown)
VH: EVQLVESGGGLVQPGGSLRLSCAASGFDFGEHWMSWVRQAPGKGLELVASIKGDASDTYYPDSVKGRFTISRDNAKNSLYLQMNSLRAEDTAVYYCVKDLSKQWLGIDYWGQGTLVTVSS
VL: DIVMTQSPLSLPVTPGEPASISCRSSQSLLHSNEKNYLHWYLQKPGQSPQLLIYDASKRASGVPDRFSGSGSGTDFTLKISRVEAEDVGVYYCVQDLHTPFTFGGGTKVEIK
B5: Control 2 (antibody, human IgG4 S228P, kappa, V domains shown)
VH: QVQLQESGPGLVKPSETLSLTCTVSGGSFSSHFWSWIRQPPGKGLEWIGYILYTGGTSFNPSLKSRVSMSVGTSKNQFSLKLSSVTAADTAVYYCARARSGITFTGIIVPGSFDIWGQGTMVTVSS
VL: not shown
notes: also called garetosmab; Garetosmab
B6: AB852 (antibody, IgG1, V domains shown)
VH: QVTLRESGPALVKPTQTLTLTCTVSGFSLSDTRWGVNWIRQPPGKALEWIGYINDRGTTDYNSALKSRLTISKDTSKNQVVLTMTNMDPVDTATYYCAHTLHTREFVGMDVWGQGTTVTVSS
VL: DIVMTQSPDSLAVSLGERATINCKSSQSVLDTSTNRNYLAWYQQKPGQPPKLLIYGASIRAGGVPDRFSGSGSGTDFTLTISSLQAEDVAVYYCQQYETWPWTFGGGTKVEIK
B7: AB854 (antibody, IgG1, V domains shown)
VH: EVQLVQSGAEVKKPGASVKVSCKASGYTFPSHYISWVRQAPGQGLEWMGGMNPITGHTIYAQKLQGRGTMTTDPSTSTAYMELRSLRSDDTAVYYCARDMRYDILPGRSYYYGMDVWGQGTTVTVSS
VL: ESALTQPASVSGSPGQSITISCTGTTGSIASNYVSWYQQHPGKAPKLMIYDTTNRPPGVSNRFSGSKSGNTASLTISGLQAEDEADYYCQSTERGRSDVIFGGGTKLTVL
notes: also called clone 854
B8: AB347 (antibody, IgG1, V domains shown)
VH: QVQLQESGPGLVKPSQTLSLTCTVSGFPLSTSRMGVNWIRQPPGKGLEWIGYINPSGATDYNPSLKSRVTMSVDTSKNQFSLKVNSVTAADTAVYYCARAGYPDVWGKGTTVTVSS
VL: EIVMTQSPATLSLSPGERATLSCRASQNIGHSLAWYQQKPGQAPRLLIYGASIRAPGIPARFSGSGSGTDFTLTISSLEPEDFAVYYCQQYITWPSTFGGGTKVEIK
B9: AB353 (antibody, IgG1, V domains shown)
VH: B8 VH with F27L, P28S, T31N, S32A, R33K, I53V, N54S, P55T, S56T, A58T
VL: EIVMTQSPATLSLSPGERATLSCRASQNVYTNLAWYQQKPGQAPRLLIYGASARASGIPARFSGSGSGTDFTLTISSLEPEDFAVYYCLQYGSSPPLFGGGTKVEIK
B10: AB350 (antibody, IgG1, V domains shown)
VH: B8 VH with F27V, P28S, T31D, S32A, I53V, N54S, P55T, S56T, A58T, T111L
VL: EIVMTQSPATLSLSPGERATLSCRASESVRSNLAWYQQKPGQAPRLLIYGASNRASGIPARFSGSGSGTDFTLTISSLEPEDFAVYYCQQYHTWPPWAFGGGTKVEIK

Legend:
Activin B [1] = biological target: T1, Activin B; experiment: ELISA, coated antigen, OD450
Inhibin A [2] = biological target: T2, Inhibin A; experiment: ELISA, coated antigen, OD450
Mature Activin A [3] = biological target: T3, Mature Activin A; experiment: ELISA, coated antigen, OD450
Description: (§1) Antibodies were re-expressed in 40 mL cultures of Expi293 cells and purified using protein G magnetic sepharose beads (Cytiva, Marlborough, MA) to provide larger quantities for secondary screening. Secondary screening included dose responses in both functional assays described above (SMAD nuclear localization and fibroblast activations assays) as well as in binding assays to the same antigens listed in Table 3. Plates were coated with 25 μL of 3 μg/mL antigen in 384-well Maxisorp plates overnight at 4° C. with agitation. The next day, the samples in the plates were blocked with 70 μL blocking buffer (PBS+1% BSA+0.1% Tween-20) for 2 hours at room temperature. Plates were then washed three times with 100 μL of wash buffer (PBS+0.1% Tween-20). Primary antibodies in Expi293 expression medium were diluted 1:3 in blocking buffer, 25 μL added per well, and the plates were incubated for an hour at room temperature with agitation. Plates were then washed three times and 25 μL of secondary antibody (goat anti-Human IgG, HRP conjugated; Jackson Immunoresearch) diluted 1:5000 in blocking buffer was added for 30 minutes at room temperature. The wells in the plates were washed six times with wash buffer and TMB substrate was added followed by 1 M H3PO4.

Latent Activin A [4] = biological target: T4, Latent Activin A; experiment: ELISA, coated antigen, OD450
Description: as §1

Activin B [5] = biological target: T1, Activin B; experiment: ELISA, coated antigen, OD450; remark: listed apart in the source
Description: as §1

Inhibin A [6] = biological target: T2, Inhibin A; experiment: ELISA, coated antigen, OD450; remark: listed apart in the source
Description: as §1

Inhibin A [7] = biological target: T2, Inhibin A; experiment: ELISA dose-response, coated antigen (row 'Inhibin')
Description: as §1

Mature Activin A [8] = biological target: T3, Mature Activin A; experiment: ELISA dose-response, coated antigen
Description: as §1

Latent Activin A [9] = biological target: T4, Latent Activin A; experiment: ELISA dose-response, coated antigen
Description: as §1

Activin B [10] = biological target: T1, Activin B; experiment: ELISA dose-response, coated antigen
Description: as §1

Activin B [11] = biological target: T1, Activin B; experiment: ELISA, coated antigen, OD450; secondary screen, single OD 450 reading as fold over negative control; below the 1.40-fold cut-off, so not a binder
Description: as §1

Activin B [12] = biological target: T1, Activin B; experiment: ELISA dose-response, coated antigen; dose-response ELISA, 1:3 dilutions from 133 nM; weak binding within the tested range
Description: as §1

Activin B [13] = biological target: T1, Activin B; experiment: ELISA, coated antigen, OD450; secondary screen, single OD 450 reading as fold over negative control; below the 1.40-fold cut-off
Description: as §1

Binder | binding result (Activin B [1]) | binding result (Inhibin A [2]) | fold-change of OD 450 over negative control (BSA) (Mature Activin A [3]) [fold] | fold-change of OD 450 over negative control (BSA) (Latent Activin A [4]) [fold] | fold-change of OD 450 over negative control (BSA) (Activin B [5]) [fold] | fold-change of OD 450 over negative control (BSA) (Inhibin A [6]) [fold] | EC50 (Inhibin A [7]) [nM] | EC50 (Mature Activin A [8]) [nM] | EC50 (Latent Activin A [9]) [nM] | EC50 (Activin B [10]) [nM] | fold-change of OD 450 over negative control (BSA) (Activin B [11]) [fold] | EC50 (Activin B [12]) [nM] | fold-change of OD 450 over negative control (BSA) (Activin B [13]) [fold]
B1 | no binding (tested: 1.40-fold over BSA) | no binding (tested: 1.40-fold over BSA) | 2.33 | 1.9 | 1.04 | 1.11 | – | – | – | – | – | – | –
B2 | no binding (tested: 1.40-fold over BSA) | – | 6.01 | 5.91 | 0.58 | 8.53 | – | – | – | – | – | – | –
B3 | – | – | 24.7 | 24.9 | 24.6 | 22.9 | 0.05 | 0.02 | 0.04 | 0.03 | – | – | –
B4 | – | – | 7.81 | 7 | – | 0.36 | – | 4.89 | 48.6 | – | 0.43 | – | –
B5 | – | – | 21 | 21.6 | – | 15.9 | 2.08 | 0.07 | 0.04 | – | – | 11.2 | 0.71
B6 | – | – | 8.73 | 6.01 | – | 0.94 | – | 2.73 | 40.9 | – | – | 21.3 | 0.88
B7 | – | – | – | – | – | – | – | 0.03 | 1 | 0.27 | – | – | –
B8 | – | – | 10.2 | 10.2 | 2.54 | 0.74 | – | 0.72 | 2.46 | 0.95 | – | – | –
B9 | no binding (tested: 1.40-fold over BSA) | no binding (tested: 1.40-fold over BSA) | 8.98 | 4.4 | 0.72 | 0.61 | – | – | – | – | – | – | –
B10 | no binding (tested: 1.40-fold over BSA) | no binding (tested: 1.40-fold over BSA) | 10.6 | 7.33 | 0.74 | 0.65 | – | – | – | – | – | – | –
